Where only a bound is given, the exact number is not on record here.

One may read the Kd as the free concentration of one partner at which half of the binding sites on the other are occupied at equilibrium, for simple one-to-one binding. Low values mean a tighter complex, high ones a looser complex. For orientation: IC50 means the concentration at which inhibition is half-maximal.

For one experiment, the target named is HLA-C*15:02. Kind of experiment: IEDB peptide-MHC binding, purified MHC/direct/fluorescence; filed as Kd, often an IC50 or EC50 that approximates it; ≥ and ≤ were set here for values at or beyond the usual limits of such assays. The conditions noted are these: source organism: Entamoeba histolytica HM-1:IMSS.
A further experiment deals with HLA-A*29:02. Kind of experiment: IEDB peptide-MHC binding, purified MHC/competitive/fluorescence; filed as Kd, often an IC50 or EC50 that approximates it; ≥ and ≤ were set here for values at or beyond the usual limits of such assays.
In another experiment the target is HLA-A*68:23. The experiment is described as above. The conditions noted are these: source organism: Entamoeba histolytica HM-1:IMSS.
For another experiment, the target named is HLA-C*14:02. Described as above. The conditions noted are these: source organism: Entamoeba histolytica HM-1:IMSS.
The target in a further experiment is HLA-B*45:06. Described as above.
In another experiment the target is HLA-B*83:01. The experiment is described as above.
The next experiment deals with HLA-A*32:15. The description is as above. The conditions noted are these: source organism: Entamoeba histolytica HM-1:IMSS.
The target of another experiment is HLA-B*15:42. The description is as above.
The target in the next experiment is HLA-A*02:03. The description is as above. The conditions noted are these: source organism: Yersinia pestis Nepal516.
A further experiment has as its target HLA-A*25:01. The description is as above. The conditions noted are these: source organism: Yersinia pestis Nepal516.
The target in another experiment is HLA-B*57:01. Described as above.
The next experiment has as its target HLA-A*03:01. Described as above.
The target of another experiment is HLA-B*15:01. The description is as above. The conditions noted are these: source organism: Yersinia pestis Nepal516.
A further experiment has as its target HLA-B*18:01. The experiment is described as above.
A further experiment addresses HLA-A*69:01. The description is as above.
Another experiment addresses HLA-B*27:03. The experiment is described as above.
The next experiment concerns the target HLA-A*02:16. Described as above. The conditions noted are these: source organism: Yersinia pestis Nepal516.
In the next experiment the target is HLA-A*26:01. The description is as above.
Another experiment has as its target HLA-B*39:01. The description is as above.
A further experiment concerns the target HLA-B*15:17. The description is as above. The conditions noted are these: source organism: Yersinia pestis Nepal516.
A further experiment concerns the target HLA-A*02:12. Described as above.
The next experiment deals with HLA-B*51:01. The description is as above. The conditions noted are these: source organism: Yersinia pestis Nepal516.
A further experiment has as its target HLA-B*46:01. Described as above.
The target in the next experiment is HLA-A*68:02. The description is as above.
The target of experiment [1] is HLA-A*02:01. The experiment is described as above. The conditions noted are these: source organism: Yersinia pestis Nepal516.
Another experiment deals with HLA-A*80:01. Described as above. The conditions noted are these: source organism: Yersinia pestis Nepal516.
Another experiment addresses HLA-A*02:11. The description is as above.
A further experiment has as its target HLA-A*02:19. The description is as above.
The target in the next experiment is HLA-A*03:19. The description is as above. The conditions noted are these: source organism: Cryptosporidium parvum Iowa II.
In a further experiment the target is HLA-B*27:20. The description is as above. The conditions noted are these: source organism: Cryptosporidium parvum Iowa II.
Experiment [2] deals with HLA-A*02:01. The experiment in a line: IEDB peptide-MHC binding, purified MHC/competitive/radioactivity; ≥ and ≤ were set here for values at or beyond the usual limits of such assays. The conditions noted are these: source organism: Homo sapiens.
The mark [3] stands for this setting: source organism: Entamoeba histolytica HM-1:IMSS.
Setting [4] is: source organism: Yersinia pestis Nepal516.
The mark [5] stands for this setting: source organism: Cryptosporidium parvum Iowa II.

YIISTHYQF: the Kd with HLA-C*15:02 is 1.94 µM; with HLA-A*29:02 (setting [3]), 0.0003 µM; with HLA-A*68:23, 0.204 µM; in the experiment with HLA-C*14:02, 0.158 µM; in the experiment with HLA-B*45:06 (setting [3]), at least 5 µM; in the experiment with HLA-B*83:01 (setting [3]) it was 5.79 µM. Moreover, the Kd in the experiment with HLA-A*32:15 is 0.213 µM; with HLA-B*15:42 (setting [3]), at least 5 µM.
For the sequence LELIGNAES, the Kd with HLA-A*02:03, in the experiment with HLA-A*29:02 (setting [4]), in the experiment with HLA-A*25:01, with HLA-B*57:01 (setting [4]), in the experiment with HLA-A*03:01 (setting [4]) and with HLA-B*15:01 was at least 20 µM each time. The Kd with HLA-B*18:01 (setting [4]) was 0.921 µM; with HLA-A*69:01 (setting [4]), at least 20 µM; with HLA-B*27:03 (setting [4]), at least 20 µM; with HLA-A*02:16, at least 20 µM; with HLA-A*26:01 (setting [4]), at least 20 µM; in the experiment with HLA-B*39:01 (setting [4]), at least 20 µM. Also, the Kd with HLA-B*15:17, in the experiment with HLA-A*02:12 (setting [4]), in the experiment with HLA-B*51:01, with HLA-B*46:01 (setting [4]), with HLA-A*68:02 (setting [4]) and in the experiment with HLA-A*02:01 [1] was at least 20 µM each time. The Kd in the experiment with HLA-A*80:01, with HLA-A*02:11 (setting [4]) and with HLA-A*02:19 (setting [4]) was at least 20 µM each time.
Consider RIYKRSLKL, for which the Kd is at least 20 µM with HLA-A*29:02 (setting [5]); at least 5 µM with HLA-B*45:06 (setting [5]); at least 20 µM with HLA-B*57:01 (setting [5]); 0.0189 µM with HLA-A*03:01 (setting [5]); at least 20 µM with HLA-B*18:01 (setting [5]); at least 20 µM with HLA-A*69:01 (setting [5]). Moreover, the Kd with HLA-B*27:03 (setting [5]) is at least 20 µM; in the experiment with HLA-A*26:01 (setting [5]) it was at least 20 µM; with HLA-B*39:01 (setting [5]) it was at least 20 µM; in the experiment with HLA-A*03:19 it was 0.0141 µM; with HLA-A*02:12 (setting [5]), at least 20 µM; with HLA-B*46:01 (setting [5]), at least 20 µM. Besides, the Kd in the experiment with HLA-B*83:01 (setting [5]) is at least 5 µM; in the experiment with HLA-A*68:02 (setting [5]), at least 20 µM; in the experiment with HLA-A*02:11 (setting [5]), at least 20 µM; in the experiment with HLA-B*15:42 (setting [5]) it was 2.19 µM; with HLA-A*02:19 (setting [5]), at least 20 µM; with HLA-B*27:20 it was 0.0293 µM.
On to KMDSFLDMQL, for which the IC50 with HLA-A*02:01 [2] was 0.0114 µM.

Source of the values: the Immune Epitope Database (IEDB).
